According to the supplement of paper PMC10567573:

B1: RAB11A (parent)
chain: AVPTDEARAFAEKNGLSFIETSAL

Variants of: B1
Assay: protein stability index of a GFP-peptide fusion (GPS, HEK-293T) (PSI 1-6); higher = more stable
Conditions: c terminus: a fixed tail appended
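Also: lentivirally expressed fusions sorted by FACS into six bins by GFP to DsRed ratio, PSI derived from sequencing read proportions per bin multiplied by bin number.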

Variant	protein stability index
AVPTDEARAFAEKNGLSFIETSAI [L24I]	2.34
AVPTDEARAFAEKNGLSFIETSAG [L24G]	5.05
AVPTDEARAFAEKNGLSFIETSAK [L24K]	3.53
AVPTDEARAFAEKNGLSFIETSAM [L24M]	3.08
AVPTDEARAFAEKNGLSFIETSAH [L24H]	4.06
AVPTDEARAFAEKNGLSFIETSAA [L24A]	4
AVPTDEARAFAEKNGLSFIETSAD [L24D]	4.79
AVPTDEARAFAEKNGLSFIETSAC [L24C]	3.07
AVPTDEARAFAEKNGLSFIETSAE [L24E]	5.03
AVPTDEARAFAEKNGLSFIETSAF [L24F]	2.73
AVPTDEARAFAEKNGLTFIETSAL [S17T]	3.36
AVPTDEARAFAEKNGLNFIETSAL [S17N]	1.56
AVPTDEARAFAEKNGLAFIETSAL [S17A]	2.53
AVPTDEARAFAEKNGLHFIETSAL [S17H]	3.19
AVPTDEARAFAEKNGLYFIETSAL [S17Y]	2.97
AVPTDEARAFAEKNGLDFIETSAL [S17D]	3.14
AVPTDEARAFAEKNGLQFIETSAL [S17Q]	4.02
AVPTDEARAFAEKNGLPFIETSAL [S17P]	4.38
AVPTDEARAFAEKNGLWFIETSAL [S17W]	2.66
AVPTDEARAFAEKNGLIFIETSAL [S17I]	2.73
AVPTDEARAFAEKNGLCFIETSAL [S17C]	2.52
AVPTDEARAFAEKNGLMFIETSAL [S17M]	2.81
AVPTDEARAFAEKNGLKFIETSAL [S17K]	3.23
AVPTDEARAFAEKNGLLFIETSAL [S17L]	2.7

Variant	protein stability index
AVPTDEARAFAEKNGLFFIETSAL [S17F]	2.62
AVPTDEARAFAEKNGLGFIETSAL [S17G]	3.53
AVPTDEARAFAEKNGLRFIETSAL [S17R]	3.08
AVPTDEARAFAEKNGLVFIETSAL [S17V]	2.79
AVPTDEARAFAEKNGLEFIETSAL [S17E]	4.3
AVPTDEARAFAEKPGLSFIETSAL [N14P]	2.44
AVPTDEARAFAEKWGLSFIETSAL [N14W]	1.74
AVPTDEARAFAEKTGLSFIETSAL [N14T]	2.39
AVPTDEARAFAEKVGLSFIETSAL [N14V]	1.85
AVPTDEARAFAEKYGLSFIETSAL [N14Y]	2.17
AVPTDEARAFAEKRGLSFIETSAL [N14R]	2.52
AVPTDEARAFAEKSGLSFIETSAL [N14S]	2.95
AVPTDEARAFAEKQGLSFIETSAL [N14Q]	2.85
AVPTDEARAFAEKNGLSFNETSAL [I19N]	4.43
AVPTDEARAFAEKNGLSFGETSAL [I19G]	4.5
AVPTDEARAFAEKNGLSFSETSAL [I19S]	4.41
AVPTDEARAFAEKNGLSFHETSAL [I19H]	2.46
AVPTDEARAFAEKNGLSFYETSAL [I19Y]	3.81
AVPTDEARAFAEKNGLSFAETSAL [I19A]	4.39
AVPTDEARAFAEKNGLSFRETSAL [I19R]	3.85
AVPTDEARAFAEKNGLSFDETSAL [I19D]	4.56
AVPTDEARAFAEKNGLSFEETSAL [I19E]	4.24
AVPTDEARAFAEKNGLSFMETSAL [I19M]	3.91
AVPTDEARAFAEKNGLSFWETSAL [I19W]	3.92

Variant	protein stability index
AVPTDEARAFAEKNGLSFKETSAL [I19K]	4.12
AVPTDEARAFAEKNGLSFLETSAL [I19L]	3.71
AVPTDEARAFAEKNGLSFFETSAL [I19F]	3.4
AVPTDEARAFAEKNGLSFPETSAL [I19P]	4.5
AVPTDEARAFAEKNGLSFTETSAL [I19T]	4.17
AVPTDEARAFAEKNGLSFVETSAL [I19V]	3
AVPTDEARAFAEKNGLSFCETSAL [I19C]	3.45
AVPTDEARAFAEKNGLSFQETSAL [I19Q]	3.6
AVPTDEARAFAEKNGLSFIETCAL [S22C]	2.54
AVPTDEARAFAEKNGLSFIETNAL [S22N]	3.38
AVPTDEARAFAEKNGLSFIETTAL [S22T]	2.49
AVPTDEARAFAEKNGLSFIETMAL [S22M]	1.95
AVPTDEARAFAEKNGLSFIETWAL [S22W]	1.6
AVPTDEARAFAEKNGLSFIETIAL [S22I]	1.76
AVPTDEARAFAEKNGLSFIETRAL [S22R]	2.25
AVPTDEARAFAEKNGLSFIETEAL [S22E]	4.01
AVPTDEARAFAEKNGLSFIETHAL [S22H]	2.22
AVPTDEARAFAEKNGLSFIETDAL [S22D]	3.84
AVPTDEARAFAEKNGLSFIETAAL [S22A]	2.35
AVPTDEARAFAEKNGLSFIETKAL [S22K]	3.44
AVPTDEARAFAEKNGLSFIETVAL [S22V]	2.64
AVPTDEARAFAEKNGLSFIETFAL [S22F]	2.27
AVPTDEARAFAEKNGLSFIETYAL [S22Y]	2.08
AVPTDEARAFAEKNGLSFIETQAL [S22Q]	3.14

Variant	protein stability index
AVPTDEARAFAEKNGLSFIETGAL [S22G]	2.91
AVPTDEARAFAEKNGLSFIETPAL [S22P]	3.73
AVPTDEARAFAEKNGLSFIETLAL [S22L]	2.5
AVPTDEARAFAEKNALSFIETSAL [G15A]	2.08
AVPTDEARAFAEKNRLSFIETSAL [G15R]	2.52
AVPTDEARAFAEKNHLSFIETSAL [G15H]	2.15
AVPTDEARAFAEKNCLSFIETSAL [G15C]	2.59
AVPTDEARAFAEKNKLSFIETSAL [G15K]	2.92
AVPTDEARAFAEKNELSFIETSAL [G15E]	3.33
AVPTDEARAFAEKNYLSFIETSAL [G15Y]	1.74
AVPTDEARAFAEKNFLSFIETSAL [G15F]	1.82
AVPTDEARAFAEKNVLSFIETSAL [G15V]	2.64
AVPTDEARAFAEKNQLSFIETSAL [G15Q]	2.58
AVPTDEARAFAEKNTLSFIETSAL [G15T]	1.7
AVPTDEARAFAEKNPLSFIETSAL [G15P]	2.2
AVPTDEARAFAEKNSLSFIETSAL [G15S]	2.06
AVPTDEARAFAEKNILSFIETSAL [G15I]	2.8
AVPTDEARAFAEKNLLSFIETSAL [G15L]	1.67
AVPTDEARAFAEKNMLSFIETSAL [G15M]	2.02
AVPTDEARAFAEKNWLSFIETSAL [G15W]	2.3
AVPTDEARAFAEKNDLSFIETSAL [G15D]	3.87
AVPTDEARAFAEKNGLSFIEDSAL [T21D]	4.45
AVPTDEARAFAEKNGLSFIEESAL [T21E]	4.34
AVPTDEARAFAEKNGLSFIEKSAL [T21K]	3.37

Variant	protein stability index
AVPTDEARAFAEKNGLSFIEMSAL [T21M]	2.64
AVPTDEARAFAEKNGLSFIECSAL [T21C]	2.87
AVPTDEARAFAEKNGLSFIEVSAL [T21V]	2.12
AVPTDEARAFAEKNGLSFIEQSAL [T21Q]	3.75
AVPTDEARAFAEKNGLSFIEWSAL [T21W]	2.39
AVPTDEARAFAEKNGLSFIELSAL [T21L]	2.46
AVPTDEARAFAEKNGLSFIEHSAL [T21H]	2.67
AVPTDEARAFAEKNGLSFIEFSAL [T21F]	2.37
AVPTDEARAFAEKNGLSFIEASAL [T21A]	2.49
AVPTDEARAFAEKNGLSFIEISAL [T21I]	1.8
AVPTDEARAFAEKNGLSFIEPSAL [T21P]	2.15
AVPTDEARAFAEKNGLSFIENSAL [T21N]	2.47
AVPTDEARAFAEKNGLSFIERSAL [T21R]	2.5
AVPTDEARAFAEKNGLSFIESSAL [T21S]	3.11
AVPTDEARAFAEKNGLSFIEYSAL [T21Y]	1.5
AVPTDEARAFAEKNGLSFIEGSAL [T21G]	1.78
AVPTDEARAFAEKNGLSFIHTSAL [E20H]	1.87
AVPTDEARAFAEKNGLSFIYTSAL [E20Y]	2.35
AVPTDEARAFAEKNGLSFIDTSAL [E20D]	2.08
AVPTDEARAFAEKNGLSFINTSAL [E20N]	2.24
AVPTDEARAFAEKNGLSFIVTSAL [E20V]	1.86
AVPTDEARAFAEKNGLSFIWTSAL [E20W]	1.44
AVPTDEARAFAEKNGLSFIFTSAL [E20F]	1.79
AVPTDEARAFAEKNGLSFIQTSAL [E20Q]	2.34

Variant	protein stability index
AVPTDEARAFAEKNGLSFIITSAL [E20I]	1.8
AVPTDEARAFAEKNGLSFIGTSAL [E20G]	2.02
AVPTDEARAFAEKNGLSFICTSAL [E20C]	2.01
AVPTDEARAFAEKNGLSFIMTSAL [E20M]	1.81
AVPTDEARAFAEKNGLSFIRTSAL [E20R]	2.5
AVPTDEARAFAEKNGLSFIKTSAL [E20K]	2.8
AVPTDEARAFAEKNGLSFIATSAL [E20A]	2.27
AVPTDEARAFAEKNGLSFIPTSAL [E20P]	3.12
AVPTDEARAFAEKNGLSFISTSAL [E20S]	3.01
AVPTDEARAFAEKNGLSFILTSAL [E20L]	1.74
AVPTDEARAFAEKNGLSFITTSAL [E20T]	2.41
AVPTDEARAFAEKNGASFIETSAL [L16A]	4.51
AVPTDEARAFAEKNGESFIETSAL [L16E]	4.73
AVPTDEARAFAEKNGQSFIETSAL [L16Q]	4.2
AVPTDEARAFAEKNGMSFIETSAL [L16M]	3.73
AVPTDEARAFAEKNGDSFIETSAL [L16D]	4.87
AVPTDEARAFAEKNGWSFIETSAL [L16W]	2.6
AVPTDEARAFAEKNGTSFIETSAL [L16T]	4.14
AVPTDEARAFAEKNGCSFIETSAL [L16C]	3.66
AVPTDEARAFAEKNGRSFIETSAL [L16R]	3.8
AVPTDEARAFAEKNGPSFIETSAL [L16P]	4.08
AVPTDEARAFAEKNGYSFIETSAL [L16Y]	3.14
AVPTDEARAFAEKNGVSFIETSAL [L16V]	3.73
AVPTDEARAFAEKNGHSFIETSAL [L16H]	4.3

Variant	protein stability index
AVPTDEARAFAEKNGKSFIETSAL [L16K]	4.27
AVPTDEARAFAEKNGNSFIETSAL [L16N]	4.05
AVPTDEARAFAEKNGSSFIETSAL [L16S]	4.35
AVPTDEARAFAEKNGISFIETSAL [L16I]	3.85
AVPTDEARAFAEKNGFSFIETSAL [L16F]	1.91
AVPTDEARAFAEKNGGSFIETSAL [L16G]	4.35
AVPTDEARAFAEKNGLSGIETSAL [F18G]	4.35
AVPTDEARAFAEKNGLSPIETSAL [F18P]	4.68
AVPTDEARAFAEKNGLSDIETSAL [F18D]	5.03
AVPTDEARAFAEKNGLSNIETSAL [F18N]	4.47
AVPTDEARAFAEKNGLSRIETSAL [F18R]	4.22
AVPTDEARAFAEKNGLSQIETSAL [F18Q]	4.33
AVPTDEARAFAEKNGLSSIETSAL [F18S]	4.62
AVPTDEARAFAEKNGLSAIETSAL [F18A]	4.62
AVPTDEARAFAEKNGLSYIETSAL [F18Y]	2.62
AVPTDEARAFAEKNGLSEIETSAL [F18E]	4.57
AVPTDEARAFAEKNGLSKIETSAL [F18K]	4.2
AVPTDEARAFAEKNGLSVIETSAL [F18V]	4.35
AVPTDEARAFAEKNGLSHIETSAL [F18H]	4.72
AVPTDEARAFAEKNGLSCIETSAL [F18C]	4.29
AVPTDEARAFAEKNGLSLIETSAL [F18L]	4.14
AVPTDEARAFAEKNGLSTIETSAL [F18T]	4.32
AVPTDEARAFAEKNGLSMIETSAL [F18M]	3.93
AVPTDEARAFAEKNGLSIIETSAL [F18I]	3.6

Variant	protein stability index
AVPTDEARAFAEKNGLSWIETSAL [F18W]	3.46
AVPTDEARAFAEKNGLSFIETSYL [A23Y]	1.81
AVPTDEARAFAEKNGLSFIETSEL [A23E]	3.68
AVPTDEARAFAEKNGLSFIETSQL [A23Q]	2.52
AVPTDEARAFAEKNGLSFIETSVL [A23V]	2.12
AVPTDEARAFAEKNGLSFIETSLL [A23L]	1.9
AVPTDEARAFAEKNGLSFIETSGL [A23G]	3.49
AVPTDEARAFAEKNGLSFIETSNL [A23N]	2.87
AVPTDEARAFAEKNGLSFIETSWL [A23W]	1.55
AVPTDEARAFAEKNGLSFIETSML [A23M]	1.81
AVPTDEARAFAEKNGLSFIETSSL [A23S]	2.79
AVPTDEARAFAEKNGLSFIETSFL [A23F]	1.66
AVPTDEARAFAEKNGLSFIETSPL [A23P]	2.82
AVPTDEARAFAEKNGLSFIETSIL [A23I]	1.65
AVPTDEARAFAEKNGLSFIETSCL [A23C]	2.08
AVPTDEARAFAEKNGLSFIETSDL [A23D]	4.18
AVPTDEARAFAEKNGLSFIETSTL [A23T]	2.08
AVPTDEARAFAEKNGLSFIETSRL [A23R]	2.04
AVPTDEARAFAEKNGLSFIETSHL [A23H]	2.04
AVPTDEARAFAEKNGLSFIETSKL [A23K]	2.42
